This is an account of results in patent US20250297021A1 (SHANDONG SIMCERE BIOPHARMACEUTICAL CO NO 1, published 2025).

“And” between values parts separate entries of the source, which are not always exact repeats. Equal entries are not always repeated.

Assay [1] has as its target T1, human BCMA-His protein (human, UniProt Q02223 1-54).
T1 construct: Bought protein; also called human BCMA protein; BCMA antigen protein; not shown: His tag
T1 sequence (looked up): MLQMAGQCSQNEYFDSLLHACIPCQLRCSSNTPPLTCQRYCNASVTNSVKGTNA
The experiment in a line: SPR, antibody captured on Protein A chip, BCMA-His in solution, 1:1 Langmuir. As to the method: (§1) A sample buffer and a running buffer were HBS-EP+ (10 mM HEPES, 150 mM NaCl, 3 mM EDTA and 0.05% surfactant P20) (GE Healthcare; BR-1006-69). The flow-through cell was set to 25° C. The sample block was set to 16° C. Both were pretreated with the running buffer. In each cycle, an antibody to be tested was first captured with a Protein A chip, and then a single concentration of BCMA antigen protein was injected. The binding and dissociation processes of the antibody and the antigen protein were recorded, and finally Glycine pH 1.5 (GE Helthcare; BR-1003-54) was used to complete chip regeneration. Binding was measured by injecting different concentrations of BCMA-His in solution for 240 s with a flow rate of 30 μL/min. The concentration started from 200 nM (see the detailed results for the actual concentration in the test) and was diluted at 1:1, making a total of 5 concentrations. The dissociation phase was monitored for up to 600 s and was triggered by switching from sample solution to running buffer. The surface was regenerated by washing with a 10 mM glycine solution (pH 1.5) for 30 s at a flow rate of 30 μL/min. Bulk refractive index difference was corrected by subtracting the response obtained from the goat anti-human Fc surface. Blank injection was also subtracted (=double reference). For calculation of apparent KD and other kinetic parameters, Langmuir 1:1 model was used. The binding rate (Kₐ), dissociation rate (Kdis) and binding affinity (KD) of the chimeric antibodies to human BCMA protein are shown in the table, wherein REGN5459-hlgG1 and HPN217-hHcAb antibodies were used as controls.
(SPR reads the build-up and loss of mass on a sensor chip optically.)

The target in assay [2] is T2, human BCMA on cells (human, UniProt Q02223 1-184).
T2 construct: whole, on cells; also called H929 cells; U266 cells
T2 sequence (looked up): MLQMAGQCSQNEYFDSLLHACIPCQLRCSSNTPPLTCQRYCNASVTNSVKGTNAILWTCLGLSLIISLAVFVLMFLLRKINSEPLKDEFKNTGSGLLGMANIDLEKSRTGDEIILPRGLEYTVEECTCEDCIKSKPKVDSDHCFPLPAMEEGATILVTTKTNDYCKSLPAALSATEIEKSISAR
Put plainly: FACS, H929 cells. As to the method: (§2) H929 cells, U266 cells and RPMI8226 cells were subjected to scale-up culture in T-75 cell culture flask to logarithmic growth phase, and the cells were pipetted to single cell suspension. After counting the cells, centrifugation was performed and the cell pellet was resuspended in FACS buffer (PBS+2% fetal calf serum) to 2×10⁶ cells per ml, and the obtained suspension was added to a 96-well FACS reaction plate at 50 μl per well.
(Flow cytometry measures light scatter and fluorescence of single cells or particles in a stream.)

The target of assay [3] is T2, human BCMA on cells. Put plainly: FACS, U266 cells. The protocol: as §2
Assay [4] has as its target T2, human BCMA on cells. The experiment in a line: FACS, H929 cells. As to the method:
(§3) The desired cells were scale-up cultured in T-75 cell culture flasks to the logarithmic growth phase, and the cells were pipetted into a single cell suspension. After the cells were counted, the cells were centrifuged and the cell pellet was resuspended in FACS buffer (PBS+2% fetal calf serum) to 2×10⁶ cells per ml, and the suspension was added to the 96-well FACS reaction plate at 50 μl per well, then the sample to be tested of the chimeric antibody was added at 50 μl per well and the mixture was incubated at 4° C. for 1 h. The obtained mixture was centrifuged and washed 3 times with a PBS buffer. […] The obtained mixture was centrifuged and washed 3 times with a PBS buffer. 100 μl of the mixture was taken for detection and result analysis by FACS (FACS Canto™, purchased from BD Company). Data analysis was performed by software (FlowJo) to obtain the mean fluorescence intensity (MFI) of the cells. Then, a software (GraphPad Prism8) was used for analysis, data fitting and EC50 calculation. The results are shown in Table 10 and FIGS. 10A-10B, FIGS. 11A-11B, and FIGS. 12A-12B. All seven chimeric antibodies bind to three types of BCMA-expressing endogenous cells.
This is another data set of the same source.

The target of assay [5] is T2, human BCMA on cells. Put plainly: FACS, U266 cells. The protocol: as §3
This is another data set of the same source.

The target of assay [6] is T2, human BCMA on cells. Put plainly: FACS, RPMI8226 cells. The protocol:
as §2

In assay [7] the target is T2, human BCMA on cells. Put plainly: FACS, RPMI8226 cells. The protocol: as §3
The source holds these as a separate data set.

Assay [8] addresses T3, human BCMA-His protein (human, UniProt Q02223 1-54).
T3 construct: bought; also called human BCMA protein; not shown: His tag
T3 sequence (looked up): T1 sequence (looked up)
The experiment in a line: ELISA, coated human BCMA-His. (In general: An ELISA detects its analyte on a solid surface through an enzyme-linked reagent.)

In assay [9] the target is T4, monkey BCMA-His protein (monkey, UniProt A0A2K5UD97 1-53).
T4 construct: bought; monkey species not further stated for this product; also called monkey BCMA protein
T4 sequence (A0A2K5UD97 entry or part of it limits assumed): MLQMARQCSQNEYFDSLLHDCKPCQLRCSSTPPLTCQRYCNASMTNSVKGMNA
The experiment in a line: ELISA, coated monkey BCMA-His.

Assay [10] concerns the target T3, human BCMA-His protein. The experiment in a line: competition ELISA, coated human BCMA; blocked ligand hAPRIL-biotin.
The target of assay [11] is T5, BCMA expressed endogenously on U266 and H929 cells (UniProt Q02223 1-184, limits assumed).
T5 construct: whole, on cells; The cell line (U266 or H929) is named under assay in each row; also called B cell maturation antigen; CD269
T5 sequence (looked up): T2 sequence (looked up)
The experiment in a line: FACS on U266 cells. As to the method: as §3
The specific method was the same as that in Example 5 (C). First, the binding of humanized antibodies to U266 cells was detected. Based on the results, some humanized antibodies were selected and tested for binding to H929 cells. […]

Assay [12] addresses T6, human BCMA-His protein (human, UniProt Q02223 1-54).
T6 construct: Analyte in the SPR assay; also called human BCMA protein; BCMA antigen protein; not shown: His tag
T6 sequence (looked up): T1 sequence (looked up)
The experiment in a line: SPR, antibody captured on Protein A chip, BCMA-His as analyte. As to the method:
as §1
The specific method was the same as that in Example 6. The binding rate (Kₐ), dissociation rate (Kdis) and binding affinity (KD) of the humanized antibodies to human BCMA protein are shown Table 38, wherein REGN5459-hlgG1 antibody is used as a control.

B1: HPN217-hHcAb (VHH)
VHH: EVQLVESGGGLVQPGRSLTLSCAASTNIFSISPYGWYRQAPGKQRELVAAIHGTSTLYADSVKGRFTISRDNAKNSIYLQMNSLRPEDTALYYCNKVPWGDYHPGNVYWGQGTQVTVSS
notes: also called control antibody
For the molecule B1, in [1], binding was characterised by a dissociation constant (Kd) of 0.818 nM, the koff (usually the rate constant with which the complex falls apart) turned out to be 0.00273 s⁻¹ and the kon (usually the second-order rate constant of association) was 3.34e+06 M⁻¹ s⁻¹.

B2: REGN5459-hIgG1 (antibody, V domains shown)
VH: EVQLVESGGGLVQPGGSLRLSCAASGFTFSNFWMTWVRQAPGKGLEWVANMNQDGSEKYYVDSVKGRFTISRDNAKSSLYLQMNSLRAEDTAVYYCARDREYCISTSCYDDFDYWGQGTLVTVSS
VL: not shown
B2: the EC50 (in general, the concentration at which the effect is half-maximal) in assay [2] is 6.78 nM; in assay [3], 9.12 nM; in [4], 8.39 nM and 7.74 nM; in assay [5], 9.52 nM and 12.8 nM; in assay [6], 10.4 nM; in assay [7], 6.79 nM and 4.52 nM. Besides, the “EC50 (read off the curve)” value in assay [8] and in [9] was ~0.1 nM in each case. The “IC50 (read off the curve)” value in assay [10] was ~5 nM.

B3: REGN5459-hIgG1 (antibody, V domains shown)
VH: B2 VH
VL: not shown
notes: also called REGN5459-hlgG1; control antibody
In the case of B3, in assay [1], binding was put at a Kd of 0.2 nM, the koff is 0.00017 s⁻¹ and the kon came to 850000 M⁻¹ s⁻¹.

B4: REGN5459-hIgG1 (antibody, V domains shown)
VH: B2 VH
VL: not shown
notes: Positive control antibody
Consider B4, for which the EC50 in assay [11] is 9.81 nM and 19.4 nM and 9.49 nM and 18.2 nM. Besides, in [12], the Kd (as a rule, the free concentration of one partner at which half of the binding sites on the other are occupied at equilibrium, for simple one-to-one binding) was 0.233 nM; the koff was determined as 0.000178 s⁻¹; the kon amounted to 766000 M⁻¹ s⁻¹.
